Data on two substances can be found in patent US20030223964A1.

The experiment has as its target FITC-labeled CD4 (UniProt P01730). Nature of the experiment: size exclusion HPLC (Biosil 250) after incubation with FITC-labeled CD4; free CD4-FITC elutes at 2.67 minutes.

In turn, “US4 gp120, purified from CHO cell supernatant” gave a retention time of the complex on size exclusion HPLC of 2.17 min. The same measure for “oligomeric gp140 US4 (o-gp140 US4), purified from CHO cell supernatant”: 1.9 min.
